Tests used:
Assay in all cases: cell-based or functional assay
CCR7 (mouse) = CCR7 (mouse) (UniProt P47774)
CXCR3 (mouse) = CXCR3 (mouse) (UniProt O88410)
CXCR4 (mouse) = CXCR4 (mouse) (UniProt P70658)
UniProt P70658, sequence (P70658 whole entry): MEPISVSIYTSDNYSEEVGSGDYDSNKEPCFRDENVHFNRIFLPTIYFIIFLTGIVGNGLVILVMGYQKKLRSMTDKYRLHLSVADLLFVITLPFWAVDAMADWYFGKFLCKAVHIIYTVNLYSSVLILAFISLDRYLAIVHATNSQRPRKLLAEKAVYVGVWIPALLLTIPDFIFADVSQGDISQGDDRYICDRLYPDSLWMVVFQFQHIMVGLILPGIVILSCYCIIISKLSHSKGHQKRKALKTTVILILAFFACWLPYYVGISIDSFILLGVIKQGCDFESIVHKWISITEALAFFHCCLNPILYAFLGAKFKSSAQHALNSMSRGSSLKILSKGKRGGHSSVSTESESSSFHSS

UniProt P47774, sequence (P47774 25-378): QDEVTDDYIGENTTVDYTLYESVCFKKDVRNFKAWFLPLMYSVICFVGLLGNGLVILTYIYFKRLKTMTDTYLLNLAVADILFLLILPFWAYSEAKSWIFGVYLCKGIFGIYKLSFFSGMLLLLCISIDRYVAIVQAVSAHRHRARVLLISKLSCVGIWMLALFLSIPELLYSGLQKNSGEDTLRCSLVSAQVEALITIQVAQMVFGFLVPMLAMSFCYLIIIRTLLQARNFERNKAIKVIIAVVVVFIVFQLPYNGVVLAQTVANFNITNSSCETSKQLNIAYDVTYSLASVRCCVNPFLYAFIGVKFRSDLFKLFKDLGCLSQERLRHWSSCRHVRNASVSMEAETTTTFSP
UniProt O88410, sequence (O88410 whole entry): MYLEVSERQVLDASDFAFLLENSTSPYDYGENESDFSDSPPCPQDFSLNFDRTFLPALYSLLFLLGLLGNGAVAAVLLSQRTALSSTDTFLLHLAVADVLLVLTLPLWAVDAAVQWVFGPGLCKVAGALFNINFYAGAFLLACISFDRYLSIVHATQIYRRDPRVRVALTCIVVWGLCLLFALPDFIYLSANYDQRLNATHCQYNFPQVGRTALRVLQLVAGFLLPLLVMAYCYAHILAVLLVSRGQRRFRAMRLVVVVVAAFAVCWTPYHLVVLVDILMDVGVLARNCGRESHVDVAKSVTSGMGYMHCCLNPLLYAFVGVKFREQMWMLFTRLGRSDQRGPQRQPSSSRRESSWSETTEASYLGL

In the case of CCL21 (ligand), the migration of WT GMP- and CMP-derived PACs in a transwell Boyden chamber, fold over BSA control (CCR7 (mouse)) is reported as 4 fold.
For CXCL10 (ligand), the migration of WT GMP- and CMP-derived PACs in a transwell Boyden chamber, fold over BSA control (CXCR3 (mouse)) was 4 fold.
SDF-1α (ligand) gave a migration of WT CMP-derived PACs in a transwell Boyden chamber, fold over BSA control (CXCR4 (mouse)) of 23 fold and a migration of WT GMP-derived PACs in a transwell Boyden chamber, fold over BSA control (CXCR4 (mouse)) of 19 fold.
